7 molecules from patent US20240091321A1 (AMICUS THERAPEUTICS, published 2024) can be followed below.

Assay [1] has as its target T1, CI-MPR receptor.
T1 construct: also called IGF2/CI-MPR; IGF2/Mannose-6-phosphate receptor
Description: CIMPR binding assay, PPT1 conditioned media, dilution starting at 50 nM, bound PPT1 activity; the table prints no units, units of the axes.

Assay [2] addresses T1, CI-MPR receptor. Description: CIMPR binding assay, PPT1 conditioned media, curves starting at 25 nM, bound PPT1 activity; the table prints no units, units of the axes.
Assay [3] concerns the target T1, CI-MPR receptor. Description: CI-MPR plate-binding assay in presence of M6P, bound PPT1 by activity assay. As to the method: (§1) In the binding assay, a plate was first coated with CI-MPR. Next, a sample containing the enzyme of interest was incubated on the plate. The plate was washed so that only substances bound to CI-MPR remain on the plate. The amount of the enzyme of interest bound to the plate was determined by enzyme assay or by mass spec. The binding assay was performed at a range of concentrations of the enzyme of interest in order to obtain a binding curve.
CI-MPR plate-binding assay performed as previously described, then amount bound was determined by PPT1 activity assay.

Assay [4] has as its target T1, CI-MPR receptor. Nature of the assay: CIMPR plate binding assay, bound NAGLU activity (4MU released).
Assay [5] deals with T1, CI-MPR receptor. Description: CI-MPR-coated plate binding assay, conditioned media of HEK 293 cells, bound TPP1 activity. As to the method:
as §1

B1: PPT1-104 (enzyme)
fusion protein: DPPAPLPLVIWHGMGDSCCNPLSMGAIKKMVEKKIPGIYVLSLEIGKTLMEDVENSFFLNVNSQVTTVCQALAKDPKLQQGYNAMGFSQGGQFLRAVAQRCPSPPMINLISVGGQHQGVFGLPRCPGESSHICDFIRKTLNAGAYSKVVQERLVQAEYWHDPIKEDVYRNHSIFLADINQERGINESYKKNLMALKKFVMVKFLNDSIVDPVDSEWFGFYRSGQAKETIPLQETSLYTQDRLGLKEMDNAGQLVFLATEGDHLQLSEEWFYAHIIPFLGRPRAVPTQGGSGSGSTSSSRTLCGGELVDTLQFVCGDRGFLFSRGGGGSRGILEECCFRECDLALLETYCATPARSE
The term Kd denotes the concentration at which binding is half-saturated. Consider B1, for which the dissociation constant (Kd) is 3.41 nM with CI-MPR receptor [1] and 3.87 nM in the assay with CI-MPR receptor [2].

B2: PPT1-32 (wt-PPT1-vIGF2-32) (enzyme)
chain: DPPAPLPLVIWHGMGDSCCNPLSMGAIKKMVEKKIPGIYVLSLEIGKTLMEDVENSFFLNVNSQVTTVCQALAKDPKLQQGYNAMGFSQGGQFLRAVAQRCPSPPMINLISVGGQHQGVFGLPRCPGESSHICDFIRKTLNAGAYSKVVQERLVQAEYWHDPIKEDVYRNHSIFLADINQERGINESYKKNLMALKKFVMVKFLNDSIVDPVDSEWFGFYRSGQAKETIPLQETSLYTQDRLGLKEMDNAGQLVFLATEGDHLQLSEEWFYAHIIPFLGRPRAVPTQGGSGSGSTSSSRTLCGGELVDTLQFVCGDRGFLFSRGGGGSRGILEECCFRECDLALLETYCATPARSE
notes: Whole entry; it includes the native PPT1 signal peptide
With B2, in the assay with CI-MPR receptor [3], the Bmax was found to be 6.05 and the “Relative Kd” value is 0.121.

B3: WT NAGLU (enzyme)
enzyme: DEAREAAAVRALVARLLGPGPAADFSVSVERALAAKPGLDTYSLGGGGAARVRVRGSTGVAAAAGLHRYLRDFCGCHVAWSGSQLRLPRPLPAVPGELTEATPNRYRYYQNVCTQSYSFVWWDWARWEREIDWMALNGINLALAWSGQEAIWQRVYLALGLTQAEINEFFTGPAFLAWGRMGNLHTWDGPLPPSWHIKQLYLQHRVLDQMRSFGMTPVLPAFAGHVPEAVTRVFPQVNVTKMGSWGHFNCSYSCSFLLAPEDPIFPIIGSLFLRELIKEFGTDHIYGADTFNEMQPPSSEPSYLAAATTAVYEAMTAVDTEAVWLLQGWLFQHQPQFWGPAQIRAVLGAVPRGRLLVLDLFAESQPVYTRTASFQGQPFIWCMLHNFGGNHGLFGALEAVNGGPEAARLFPNSTMVGTGMAPEGISQNEVVYSLMAELGWRKDPVPDLAAWVTSFAARRYGVSHPDAGAAWRLLLRSVYNCSGEACRGHNRSPLVRRPSLQMNTSIWYNRSDVFEAWRLLLTSAPSLATSPAFRYDLLDLTRQAVQELVSLYYEEARSAYLSKELASLLRAGGVLAYELLPALDEVLASDSRFLLGSWLEQARAAAVSEAEADFYEQNSRYQLTLWGPEGNILDYANKQLAGLVANYYTPRWRLFLEALVDSVAQGIPFQQHQFDKNVFQLEQAFVLSKQRYPSQPRGDTVDLAKKIFLKYYPRWVAGSW
notes: also called untagged NAGLU
For B3, the Kd with CI-MPR receptor [4] stood at 325 nM.

B4: PPT1-33 (wt-PPT1-vIGF2-8Q) (enzyme)
chain: DPPAPLPLVIWHGMGDSCCNPLSMGAIKKMVEKKIPGIYVLSLEIGKTLMEDVENSFFLNVNSQVTTVCQALAKDPKLQQGYNAMGFSQGGQFLRAVAQRCPSPPMINLISVGGQHQGVFGLPRCPGESSHICDFIRKTLNAGAYSKVVQERLVQAEYWHDPIKEDVYRNHSIFLADINQERGINESYKKNLMALKKFVMVKFLNDSIVDPVDSEWFGFYRSGQAKETIPLQETSLYTQDRLGLKEMDNAGQLVFLATEGDHLQLSEEWFYAHIIPFLGRPRAVPTQGGSGSGSTSSSRTLCGGELVDTLQFVCGDRGFLFSRPASRVSRRSRGIVEECCFRECDLALLETYCATPARSE
notes: as for B2
On to B4, for which, in the assay with CI-MPR receptor [3], the Bmax worked out at 9.19 and the “Relative Kd” value was determined as 0.143.

B5: Natural hTTP1 (enzyme)
enzyme: SYSPEPDQRRTLPPGWVSLGRADPEEELSLTFALRQQNVERLSELVQAVSDPSSPQYGKYLTLENVADLVRPSPLTLHTVQKWLLAAGAQKCHSVITQDFLTCWLSIRQAELLLPGAEFHHYVGGPTETHVVRSPHPYQLPQALAPHVDFVGGLHRFPPTSSLRQRPEPQVTGTVGLHLGVTPSVIRKRYNLTSQDVGSGTSNNSQACAQFLEQYFHDSDLAQFMRLFGGNFAHQASVARVVGQQGRGRAGIEASLDVQYLMSAGANISTWVYSSPGRHEGQEPFLQWLMLLSNESALPHVHTVSYGDDEDSLSSAYIQRVNTELMKAAARGLTLLFASGDSGAGCWSVSGRHQFRPTFPASSPYVTTVGGTSFQEPFLITNEIVDYISGGGFSNVFPRPSYQEEAVTKFLSSSPHLPPSSYFNASGRAYPDVAALSDGYWVVSNRVPIPWVSGTSASTPVFGGILSLINEHRILSGRPPLGFLNPRLYQQHGAGLFDVTRGCHESCLDEEVEGQGFCSGPGWDPVTGWGTPNFPALLKTLLNP
notes: also called WT TPP1; TPP1 wildtype
The EC50 (read off the curve) is the concentration giving half of the maximal effect. High values mean a need for much substance, low ones an effect from little substance. Regarding B5, the concentration for a half-maximal effect (EC50 (read off the curve)) in the assay with CI-MPR receptor [5] is roughly 0.4 nM.

B6: PPT1-101 (enzyme)
fusion protein: MKLSLVAAMLLLLWVALLLLSAARAAASRTLCGGELVDTLQFVCGDRGFLFSRGGGGSRGILEECCFRDCDLALLETYCATPARSEGGGGSGGGGSRPRAVPTQDPPAPLPLVIWHGMGDSCCNPLSMGAIKKMVEKKIPGIYVLSLEIGKTLMEDVENSFFLNVNSQVTTVCQALAKDPKLQQGYNAMGFSQGGQFLRAVAQRCPSPPMINLISVGGQHQGVFGLPRCPGESSHICDFIRKTLNAGAYSKVVQERLVQAEYWHDPIKEDVYRNHSIFLADINQERGINESYKKNLMALKKFVMVKFLNDSIVDPVDSEWFGFYRSGQAKETIPLQETSLYTQDRLGLKEMDNAGQLVFLATEGDHLQLSEEWFYAHIIPFLG
Consider B6, for which the Kd was 4.12 nM in the assay with CI-MPR receptor [1] and 4.57 nM with CI-MPR receptor [2].

B7: PPT1-29 (BiP2aa-vIGF2-PPT1) (enzyme)
chain: MKLSLVAAMLLLLWVALLLLSAARAAASRTLCGGELVDTLQFVCGDRGFLFSRPASRVSRRSRGIVEECCFRSCDLALLETYCATPARSEGGGGSGGGGSRPRAVPTQDPPAPLPLVIWHGMGDSCCNPLSMGAIKKMVEKKIPGIYVLSLEIGKTLMEDVENSFFLNVNSQVTTVCQALAKDPKLQQGYNAMGFSQGGQFLRAVAQRCPSPPMINLISVGGQHQGVFGLPRCPGESSHICDFIRKTLNAGAYSKVVQERLVQAEYWHDPIKEDVYRNHSIFLADINQERGINESYKKNLMALKKFVMVKFLNDSIVDPVDSEWFGFYRSGQAKETIPLQETSLYTQDRLGLKEMDNAGQLVFLATEGDHLQLSEEWFYAHIIPFLG
notes: Whole entry; it includes the modified BiP signal peptide
B7: in the assay with CI-MPR receptor [3], the Bmax was found to be 8.98 and the “Relative Kd” value was found to be 0.107.
